Assay [1] deals with T1, mouse CD96 expressed on CHO cells (mouse, UniProt Q3U0X8 22-602).
T1 construct: whole, on cells; also called mCD96
T1 sequence (looked up): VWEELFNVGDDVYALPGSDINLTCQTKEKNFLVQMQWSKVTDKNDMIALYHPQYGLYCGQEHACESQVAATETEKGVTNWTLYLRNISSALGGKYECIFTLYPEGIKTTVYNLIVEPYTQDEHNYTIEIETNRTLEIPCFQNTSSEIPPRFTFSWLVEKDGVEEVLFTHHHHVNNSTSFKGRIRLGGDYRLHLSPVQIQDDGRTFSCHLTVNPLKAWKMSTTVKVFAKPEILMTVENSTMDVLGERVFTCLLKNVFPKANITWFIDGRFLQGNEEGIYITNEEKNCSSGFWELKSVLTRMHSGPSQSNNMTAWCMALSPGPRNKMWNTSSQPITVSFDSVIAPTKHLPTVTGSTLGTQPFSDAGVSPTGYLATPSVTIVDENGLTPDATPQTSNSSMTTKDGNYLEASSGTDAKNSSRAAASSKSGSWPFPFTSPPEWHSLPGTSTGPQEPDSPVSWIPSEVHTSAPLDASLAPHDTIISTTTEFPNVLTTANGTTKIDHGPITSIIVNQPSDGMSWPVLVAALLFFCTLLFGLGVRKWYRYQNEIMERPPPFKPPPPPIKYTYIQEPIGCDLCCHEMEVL
The assay can be described thus: FCM on CHO cells expressing mouse CD96. The essentials: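 Flow cytometry on non-fixed CHO transfectants; mouse CD96 surface expression verified with clone 6A6. Mouse anti-CD96 antibodies or isotype controls applied at 10 or 1 μg/mL, 30 min at +4 °C.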

The target in assay [2] is T2, human CD96 short isoform v2 expressed on CHO cells (human, UniProt P40200 22-585).
T2 construct: also called hCD96v2; CD96v2; not shown: C-terminal HA-tag
T2 sequence: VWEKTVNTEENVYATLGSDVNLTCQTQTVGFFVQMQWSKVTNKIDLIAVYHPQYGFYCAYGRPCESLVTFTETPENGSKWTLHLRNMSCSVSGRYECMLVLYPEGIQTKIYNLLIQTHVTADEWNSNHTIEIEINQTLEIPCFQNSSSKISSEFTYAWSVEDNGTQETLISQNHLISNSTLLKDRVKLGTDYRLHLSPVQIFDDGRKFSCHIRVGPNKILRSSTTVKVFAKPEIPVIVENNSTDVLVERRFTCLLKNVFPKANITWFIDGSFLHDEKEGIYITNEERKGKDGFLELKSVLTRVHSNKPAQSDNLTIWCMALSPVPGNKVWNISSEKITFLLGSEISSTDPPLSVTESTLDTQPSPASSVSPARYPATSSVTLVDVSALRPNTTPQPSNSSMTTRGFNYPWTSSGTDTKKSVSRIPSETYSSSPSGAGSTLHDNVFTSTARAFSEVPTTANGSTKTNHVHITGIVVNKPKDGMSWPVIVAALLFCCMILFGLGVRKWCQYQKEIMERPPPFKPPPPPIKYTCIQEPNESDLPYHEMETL
Put plainly: flow cytometry, indirect staining of transiently transfected CHO-S cells; median % of stained cells, 3-4 experiments. The source says:
Expression plasmids containing either the complete sequence of hCD96v2 or different extracellular domains (D1 to D3) of hCD96v2 or combinations thereof (D1D2, D1D3 or D2D3) were transiently transfected in CHO-S cells. Each transient transfect was indirectly stained with the different anti-CD96 candidates and analyzed by flow cytometry. Represented is the median % of stained CHO-S transfect obtained from 3 to 4 independent experiments for each anti-CD96 tested.
Expression vectors coding for truncated extracellular domains of hCD96v2 (short isoform v2) were constructed to map, within the 3 described immunoglobulin domains of hCD96v2, the epitopes recognized by the anti-hCD96 candidates. All expression vectors constructed contained the signal peptide, the D4 domain, the transmembrane, the intracellular chain of […] plus a HA-Tag to monitor transfection efficiency of the various constructs. The expression vectors contained only D1, D2, D3 or combinations of those 3 domains (D1D2, D1D3, D2D3). The anti-hCD96 antibodies were tested by FCM for their capacity to recognize the truncated CD96 proteins transiently expressed on CHO-S cells.
For orientation: A flow cytometer gives signals particle by particle.

The target in assay [3] is T3, human CD96 long isoform v1 transiently expressed on CHO cells (human, UniProt P40200 22-585).
T3 construct: also called hCD96v1; CD96v1
T3 sequence: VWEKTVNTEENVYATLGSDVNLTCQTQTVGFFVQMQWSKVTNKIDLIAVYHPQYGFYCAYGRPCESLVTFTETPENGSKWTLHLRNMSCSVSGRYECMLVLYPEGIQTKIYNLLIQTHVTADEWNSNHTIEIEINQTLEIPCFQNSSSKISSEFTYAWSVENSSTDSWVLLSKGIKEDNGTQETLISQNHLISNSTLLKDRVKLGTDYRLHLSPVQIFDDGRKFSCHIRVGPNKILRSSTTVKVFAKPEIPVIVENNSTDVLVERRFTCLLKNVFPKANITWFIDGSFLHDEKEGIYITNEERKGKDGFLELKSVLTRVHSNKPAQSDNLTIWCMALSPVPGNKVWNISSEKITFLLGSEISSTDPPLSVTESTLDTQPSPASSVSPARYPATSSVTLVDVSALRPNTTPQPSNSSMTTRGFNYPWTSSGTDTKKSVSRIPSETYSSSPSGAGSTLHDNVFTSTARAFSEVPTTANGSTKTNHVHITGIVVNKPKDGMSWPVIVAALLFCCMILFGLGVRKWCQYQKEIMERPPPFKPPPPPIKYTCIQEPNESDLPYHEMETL
The assay can be described thus: FCM on hCD96v1-CHO cells, 10 µg/ml.

The target in assay [4] is T4, rhesus CD96 transiently expressed on CHO cells (rhesus, UniProt P40200 22-585 (human entry)).
T4 construct: also called rhesus CD96, short isoform
T4 chain: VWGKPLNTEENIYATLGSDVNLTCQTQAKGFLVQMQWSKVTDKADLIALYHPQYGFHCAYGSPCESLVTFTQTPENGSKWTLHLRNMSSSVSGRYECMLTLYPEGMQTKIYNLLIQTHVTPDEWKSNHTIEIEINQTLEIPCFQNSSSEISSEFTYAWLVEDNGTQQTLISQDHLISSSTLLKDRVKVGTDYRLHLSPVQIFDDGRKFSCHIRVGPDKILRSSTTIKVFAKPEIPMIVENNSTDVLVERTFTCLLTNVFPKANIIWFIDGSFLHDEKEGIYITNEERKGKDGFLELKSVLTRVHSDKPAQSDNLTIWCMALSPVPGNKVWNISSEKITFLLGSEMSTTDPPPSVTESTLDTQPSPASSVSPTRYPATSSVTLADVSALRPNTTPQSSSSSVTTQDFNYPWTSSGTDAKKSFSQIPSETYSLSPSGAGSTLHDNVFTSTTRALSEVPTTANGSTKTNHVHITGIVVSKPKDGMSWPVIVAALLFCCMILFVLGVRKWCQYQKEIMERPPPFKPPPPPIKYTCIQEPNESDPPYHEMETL
The assay can be described thus: flow cytometry on CHO cells transiently expressing rhesus CD96; antibody at 1 (thin line) and 10 µg/ml (thick dashed line), filled grey = isotype control. The essentials: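 Non-fixed CHO cells transiently transfected with rhesus CD96 were incubated with mouse anti-CD96 antibodies or isotype controls at 1 or 10 µg/mL for 30 min at 4 °C. Binding was read as fluorescence intensity by flow cytometry.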

For assay [5], the target named is T5, hCD226-His tagged protein transiently expressed on CHO cells (human, UniProt Q15762 19-336).
T5 construct: whole, on cells; also called DNAM-1
T5 sequence (looked up): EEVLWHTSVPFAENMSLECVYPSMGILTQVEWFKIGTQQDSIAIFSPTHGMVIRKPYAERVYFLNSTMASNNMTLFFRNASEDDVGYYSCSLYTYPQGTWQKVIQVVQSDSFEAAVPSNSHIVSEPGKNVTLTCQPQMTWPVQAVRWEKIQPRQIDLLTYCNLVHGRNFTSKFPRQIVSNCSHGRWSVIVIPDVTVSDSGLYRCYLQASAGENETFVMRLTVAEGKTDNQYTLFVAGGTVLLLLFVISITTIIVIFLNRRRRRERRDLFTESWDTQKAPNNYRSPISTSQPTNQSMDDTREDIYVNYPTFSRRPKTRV
Put plainly: FRET by flow cytometry on transfected CHO cells.

B1: BL006-2-19G13-19K15 (antibody, V domains shown)
VH: QVQLQQPGSELVRPGASVKLSCKASGYKFTSYWMHWVKQRPGQGLEWIGSIYPGSGSTNYDEKFKRKATLTVDTFSSTASMQLSSLTSEDSAVYYCTREMAYWGQGTLVTVSA
VL: DIVITQDELSNPVTSGESVSISCRSSKSLLYKDGKTYLNWFLQRPGQSPQLLVYWMSTRASGVSDRFSGSGSGTDFTLEISRVKAEDVGVYYCQQVVEYPFTFGTGTKLGIK
notes: Recombinant mIgG2a/kappa (also made as mIgG2a-D265A); also called candidate NO 9
On to B1, for which the binding result is “no binding (tested: 1 and 10 µg/mL)” in assay [1]; “binds” in assay [2]; “binds” in assay [3]; “binds” in assay [4].

B2: hTIGIT-Myc tagged protein transiently expressed on CHO cells (receptor, human, UniProt Q495A1 22-244, looked up)
chain: MMTGTIETTGNISAEKGGSIILQCHLSSTTAQVTQVNWEQQDQLLAICNADLGWHISPSFKDRVAPGPGLGLTLQSLTVNDTGEYFCIYHTYPDGTYTGRIFLEVLESSVAEHGARFQIPLLGAMAATLVVICTAVIVVVALTRKKKALRIHSVEGDLRRKSAGQEEWSPSAPSPPGSCVQAEAAPAGLCGEQRGEDCAELHDYFNVLSYRSLGNCSFFTETG
notes: whole, on cells
Consider B2, for which the binding result in assay [5] was “binds”.
